Test results from the supplement of paper PMC9170038.

How the values were obtained:
Conditions in all cases: FMN input: 0 or 200 uM; Eterna round: R93 (includes R88 designs)
MS2 coat protein [1] = experiment: apparent KD of MS2 coat protein, switch ON state; designed switch direction (-1 OFF switch, 1 ON switch): 1; higher = weaker reporter binding
Summary of the method: (§1)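 Designed RNA switches were transcribed on-chip from Illumina sequencing clusters. SNAP-549-labelled MS2 coat protein was titrated onto them in twofold steps from 0.7 or 1.5 nM to 3 µM in 100 mM Tris-HCl pH 7.5, 80 mM KCl, 4 mM MgCl2, either without or with constant ligand. Apparent KD reflects the per-design median of normalised cluster binding-curve fits.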

MS2 coat protein [2] = experiment: apparent KD of MS2 coat protein, switch OFF state (with FMN for OFF switches, without FMN for ON switches); designed switch direction (-1 OFF switch, 1 ON switch): 1; higher = weaker reporter binding
Summary of the method: as §1

MS2 coat protein [3] = experiment: apparent KD of MS2 coat protein, switch ON state; designed switch direction (-1 OFF switch, 1 ON switch): -1; higher = weaker reporter binding
Summary of the method: as §1

MS2 coat protein [4] = experiment: apparent KD of MS2 coat protein, switch OFF state (with FMN for OFF switches, without FMN for ON switches); designed switch direction (-1 OFF switch, 1 ON switch): -1; higher = weaker reporter binding
Summary of the method: as §1

Sequence	apparent KD of MS2 coat protein (MS2 coat protein [1]) [nM]	apparent KD of MS2 coat protein (MS2 coat protein [2]) [nM]	apparent KD of MS2 coat protein (MS2 coat protein [3]) [nM]	apparent KD of MS2 coat protein (MS2 coat protein [4]) [nM]
AAAAUACAUGAGGAUCACCCAUGUGAAAAUAUGGAAGGAUAUACGAAAAAUAAAUAAAACGUAGAAGGUCUAAAAA [SS! 1 MT 3]	23.8	38.4	–	–
CGAAAGGAGAGAGAGGAUAUCCAAAGGAAAACAUGAGGAUCACCCAUGUAGAAGGUAGGAGAUUGGGAGAAGGCUCAAGAAAGAG [salish99-ss2-144]	23	27.5	–	–
AUAAAAGAAGCGAAGGAUAUCCAAAGAACCACAUGAGGAUCACCCAUGUAAAGAAAGAAAAAGUGGGAGAAGGUCGCAAAGAAUA [73%, More Fisker Same State 2, D3, 5]	26.6	53.7	–	–
AGGUAACAUGAGGAUCACCCAUGUACCAAUAAUGCAGGAUAUCGACACGAAAAUACGUGUCGAGAAGGGCAUGAAA [SS1 MT 22]	13.4	–	–	–
ACCCGACAUGAGGAUCACCCAUGUAAACAAUCAUGAGGAUAUCCGGAGCAAGUGCUCCAGGGAGAAGGCAUAAAAG [Reesbema]	–	122	–	–
AACAAACAUGAGGAUCACCCAUGUCAGGAUAUGCACAAACAAACAAACAAACAAGCAAGCAGAAGGGACACAAC [Amethyst 89]	–	–	13.7	27.6
AAAAACGUAGGAUAUACAUGAGGAUCACCCAUGUAAAAAAAAAAGGGAGAAAAAAGAAGUAGAAGGACGAAAAA [JR_Exc003_Sub002]	–	–	32.4	27.1
AACAGUACAGGAUAUACAUGAGGAUCACCCAUGUAAAGGGAAUAAAACAAAAAAAAAUGUAGAAGGGUACUGGA [Mat - Exclusion 3 - Eli mod - D66]	–	–	75.1	110
AGGAAACAUGAGGAUCACCCAUGUGAGGAUAUGAACGAAAUAAAAUAAAAAUAAAAGUUCAGAAGGCAUAAAAA [Mat - Exclusion 1 - Eli mod - D7]	–	–	26.8	24.4
CUCUUGUGAGGAUAUUGAAGAAAAGAAAAGAAAGAAAAGAACAAGAAGGCACAUGAGGAUCACCCAUGUAAGAA [EteRNA is fun!]	–	–	24.8	36.5
AAAAAGGCAGGAUAUACGAACAUGUCAAAAGACGUGAAGGGACAUGAGGAUCACCCAUGUAGAAGGGUCAAGAA [JL Stem Breaker 18]	–	–	218	52.1
AAAACGGCAGGAUAUACGAUUGGGAACUAGACCGAGGAACCACAUGAGGAUCACCCAUGUAGAAGGGCCAAAAA [Ex2 Malc#15]	–	–	24.2	96.1
AAGAAUUGAGGAUAUACAAGGAAGAAAGAAAAGAAAAGAAAACAUGAGGAUCACCCAUGUAGAAGGCAAUAGAA [EteRNA is fun!]	–	–	23.5	12.5
AAAAAUGGAGGAUAUACAUGAGGAUCACCCAUGUGUAACUAUACUAAGCGCUCCUCAGGUAGAAGGCCAAAAAA [Gilly Gone Silly 15 - Jieux - Exclusion 3]	–	–	70.9	48
AAAAAGGCAGGAUAUGCAUACUCACGGAAAAACUGGAUGGUACAUGAGGAUCACCCAUGUAGAAGGGCUAAAAA [Dora Explored 16 - Jieux - Exclusion 2]	–	–	55	44.3
AGCUAGUGAGGAUAUACGAACAUGUCAACAGACUGUAAGGGACAUGAGGAUCACCCAUGUAGAAGGCACUAGCA [Diamond 56]	–	–	59.4	174
AGCUAGUCAGGAUAUACAUGAAAAAAAAAAAAAAAAAAAAAACAUGAGGAUCACCCAUGUAGAAGGGACUAGCA [Starry Esclusion 2 (jandersonlee round 1 mod)]	–	–	95.6	98.9
AAAAAGUGAGGAUAUGCGAAGGCGUCUGAUAGACGAGGCUAGCAGAAGGCACAUGAGGAUCACCCAUGUGGGAA [Mat - Mod of Nando 64% 3]	–	–	53.8	98.5
AAGAAUCGAGGAUAUACAUGAAAGAAAGAAAAGAAAAGAAAACAUGAGGAUCACCCAUGUAGAAGGCGAUAGAA [EteRNA is fun!]	–	–	21.3	28.7
UCCGAACAUGAGGAUCACCCAUGUCAGGAUAUACACCCAGCAUGUAAACCAUGCUCAAGUAGAAGGGACGGGUG [Teisaes]	–	–	34.9	25.7
AAAAAACAUGAGGAUCACCCAUGUGAGGAUAUUGGUAUUCAGGAUAUAAUCUCAAUAGCGAGAAGGCGCAUAAA [Brourd 613 Mod 16 - Jieux - Exclusion 1]	–	–	20.9	18.1
AAGAAGAGAGGAUAUACAUGAAAGAAAGAAAAGAAAAGAAAACAUGAGGAUCACCCAUGUAGAAGGCUCAAGAA [EteRNA is fun!]	–	–	39.4	40.6

Sequence	apparent KD of MS2 coat protein (MS2 coat protein [1]) [nM]	apparent KD of MS2 coat protein (MS2 coat protein [2]) [nM]	apparent KD of MS2 coat protein (MS2 coat protein [3]) [nM]	apparent KD of MS2 coat protein (MS2 coat protein [4]) [nM]
AGGAAACAUGAGGAUCACCCAUGUAAGGAUAUGUGAAAGAAAAGAAAAGAAAGAAGAAGCAGAAGGUACAAGAA [Anedjib]	–	–	34.9	47.2
AGCACGUCAGGAUAUACGAAAAAAAAGGGUAAAAAAAAGGGACAUGAGGAUCACCCAUGUAGAAGGGACAAGCA [Diamond 93]	–	–	147	172
AGAAAUACAGGAUAUACAUGGGAAAAAAAAAAAAAAAUUCUACAUGAGGAUCACCCAUGUAGAAGGGUAUUUCA [Ex2 Design 170: Random 1]	–	–	48.2	32
AAAAAACAUGAGGAUCACCCAUGUGAGGAUAUCCUAAACAAAAAAAACAAAAACAAAUGGAGAAGGCACAAAAA [Amethyst 35]	–	–	105	126
AAAGGGUCAGGAUAUCGAUUAAUAAUAAAAUAAAUAAAGAUCGAGAAGGGACAUGAGGAUCACCCAUGUAUAAA [May 77]	–	–	45.9	54.6
AUGAGAGCAGGAUAUGCAGGUGUGCCGGAAGAAAGAAGAAGACAUGAGGAUCACCCAUGUAGAAGGGCUAGCCC [Bibidi]	–	–	30	18.5
GAGGAACAUGAGGAUCACCCAUGUGAGGAUAUCGGAGGAGGAGGAGGAGGAGGAGGAGCGAGAAGGUACAAGAG [salish99-Ex1-03]	–	–	22.7	29.8
AAAAAACAUGAGGAUCACCCAUGUAAGGAUAUGCUGAAAAACACGGAAAAACGUGACAGCAGAAGGUACAAAAA [66%, Wbt, 32]	–	–	21.6	30.4
AAAAAGGGAGGAUAUGCAUAAAAAAAAAAAAAAAAAAAAAAACAUGAGGAUCACCCAUGUAGAAGGCCCAAAAA [Dora Explored - Jieux - Exclusion 2]	–	–	58	36.3
AGAAAGUCAGGAUAUACAGAUAAAAAAACGAAAAAAAAUCUGUAGAAGGGACAUGAGGAUCACCCAUGUAAAGA [Mat - Exclusion 4 - Mayanna - D102]	–	–	49.4	39.2
AAAAAGAUAGGAUAUACGUACAUGUCGAAAGACGUGAAGGGACAUGAGGAUCACCCAUGUAGAAGGAUUAAAAA [Mat - Exclusion 2 - JL mod - D90]	–	–	43.8	14.5
AAGAACUAAGGAUAUACAAGGAAGAAAGAAAAGAAAAGAAAACAUGAGGAUCACCCAUGUAGAAGGUAGUAGAA [EteRNA is fun!]	–	–	28.8	24.7
AACAGUACAGGAUAUACAUGAGGAUCACCCAUGUGAUAUAAAUAAAACAAAAAUAAAAGUAGAAGGGUACUGGA [Ruby 44]	–	–	25.7	70.8
AAAAAGUGAGGAUAUGCGCUGUCAAGUAGACACGAGCAGUCGUAGAAGGCACAUGAGGAUCACCCAUGUUCAAA [EX4 Malc#22]	–	–	25.4	16
AUCUACCUAGGAUAUACAUGAGGAUCACCCAUGUACAGAUACAACAAGGGAAACACACGUAGAAGGAGGAAGAU [JR_Exc003_Sub1206]	–	–	25.8	60.8
AAAAAACAUGAGGAUCACCCAUGUAAGGAUAUGCUGAAAAACACGGAAAAAACGUGCAGCAGAAGGUACAAAAA [66%, Wbt, 33]	–	–	20.1	28.3
UCCUCACAUGAGGAUCACCCAUGUGAGGAUAUGUACAUCAGGAAAAAAAAACUGAUGUACAGAAGGCACAUGGG [Design 8: Super Stable G-C]	–	–	30.8	15.2
AACAGUACAGGAUAUACAUGAGGAUCACCCAUGUAAAAAAGGGCUGGCGUACCAGAAAGUAGAAGGGUACUGGA [Moding Maslow revisited (73) 9]	–	–	30.6	88.1
AAAUAGCAAGGAUAUACAUGAGGAUCACCCAUGUGAACAAGGUAUGGAAUAGAAUAGAGUAGAAGGUGCAAAUA [Mod 2 of Ex 3 Tesla 8 - Jieux - Exclusion 3]	–	–	31.3	43.4
AAAAAACAUGAGGAUCACCCAUGUAAGGAUAUGCUAAAAAACACGGAAAACGUGAAUAGCAGAAGGUACAAAAA [66%, Wbt, 30]	–	–	21.5	38.5
AAAAAUUGAGGAUAUACGAACAUGUCAAAAGACGUGAAGGGACAUGAGGAUCACCCAUGUAGAAGGCGAAAAAA [JL Loop Breaker 2]	–	–	41.3	19.7
